Source: patent publication US20070105771A1 (Y S THERAPEUTICS, published 2007)

What was measured:
[1] = target: T1, human CD26-derived 13 mer peptide 67 (human); assay: peptide microarray
T1 construct: also called LPSYRITWTGKED
T1 peptide: LPSYRITWTGKED
Method: (§1) The overnight incubation was followed by three washings with each of PBS buffer pH 7.5 and water. The microarrays were then scanned using ArrayWorx-Microarray Scanner.
(§2) The SPOT recognition software package ArrayPro was used for data analysis. The mean of signal intensities from 3 identical subarrays on each microarray image was used for data evaluation.

[2] = target: T2, human CD26-derived 13 mer peptide 71 (human); assay: peptide microarray
T2 peptide: TGKEDIIYNGITD
Method: as §1, §2

[3] = target: T3, human CD26-derived 13 mer peptide 87 (human); assay: peptide microarray
T3 peptide: GTFLAYAQFNDTE
Method: as §1, §2

[4] = target: T4, human CD26-derived 13 mer peptide 88 (human); assay: peptide microarray
T4 peptide: FLAYAQFNDTEVP
Method: as §1, §2

[5] = target: T5, human CD26-derived 13 mer peptide 90 (human); assay: peptide microarray
T5 peptide: AQFNDTEVPLIEY
Method: as §1, §2

[6] = target: T6, human CD26-derived 13 mer peptide 96 (human); assay: peptide microarray
T6 peptide: YSFYSDESLQYPK
Method: as §1, §2

[7] = target: T7, human CD26-derived 13 mer peptide 100 (human); assay: peptide microarray
T7 peptide: LQYPKTVRVPYPK
Method: as §1, §2

[8] = target: T8, human CD26-derived 13 mer peptide 102 (human); assay: peptide microarray
T8 peptide: KTVRVPYPKAGAV
Method: as §1, §2

[9] = target: T9, human CD26-derived 13 mer peptide 103 (human); assay: peptide microarray
T9 peptide: VRVPYPKAGAVNP
Method: as §1, §2

[10] = target: T10, human CD26-derived 13 mer peptide 104 (human); assay: peptide microarray
T10 peptide: VPYPKAGAVNPTV
Method: as §1, §2

[11] = target: T11, human CD26-derived 13 mer peptide 110 (human); assay: peptide microarray
T11 peptide: VKFFVVNTDSLSS
Method: as §1, §2

[12] = target: T12, human CD26-derived 13 mer peptide 111 (human); assay: peptide microarray
T12 peptide: FFVVNTDSLSSVT
Method: as §1, §2

[13] = target: T13, human CD26-derived 13 mer peptide 112 (human); assay: peptide microarray
T13 peptide: VVNTDSLSSVTNA
Method: as §1, §2

[14] = target: T14, human CD26-derived 13 mer peptide 116 (human); assay: peptide microarray
T14 peptide: SVTNATSIQITAP
Method: as §1, §2

[15] = target: T15, human CD26-derived 13 mer peptide 117 (human); assay: peptide microarray
T15 peptide: TNATSIQITAPAS
Method: as §1, §2

[16] = target: T16, human CD26-derived 13 mer peptide 118 (human); assay: peptide microarray
T16 peptide: ATSIQITAPASML
Method: as §1, §2

[17] = target: T17, human CD26-derived 13 mer peptide 119 (human); assay: peptide microarray
T17 peptide: SIQITAPASMLIG
Method: as §1, §2

[18] = target: T18, human CD26-derived 13 mer peptide 122 (human); assay: peptide microarray
T18 peptide: PASMLIGDHYLCD
Method: as §1, §2

[19] = target: T19, human CD26-derived 13 mer peptide 9 (human); assay: peptide microarray
T19 peptide: SDHEYLYKQENNI
Method: as §1, §2

[20] = target: T20, human CD26-derived 13 mer peptide 10 (human); assay: peptide microarray
T20 peptide: HEYLYKQENNILV
Method: as §1, §2

[21] = target: T21, human CD26-derived 13 mer peptide 15 (human); assay: peptide microarray
T21 peptide: ILVFNAEYGNSSV
Method: as §1, §2

[22] = target: T22, human CD26-derived 13 mer peptide 18 (human); assay: peptide microarray
T22 peptide: EYGNSSVFLENST
Method: as §1, §2

[23] = target: T23, human CD26-derived 13 mer peptide 21 (human); assay: peptide microarray
T23 peptide: VFLENSTFDEFGH
Method: as §1, §2

[24] = target: T24, human CD26-derived 13 mer peptide 22 (human); assay: peptide microarray
T24 peptide: LENSTFDEFGHSI
Method: as §1, §2

[25] = target: T25, human CD26-derived 13 mer peptide 23 (human); assay: peptide microarray
T25 peptide: NSTFDEFGHSIND
Method: as §1, §2

[26] = target: T26, human CD26-derived 13 mer peptide 24 (human); assay: peptide microarray
T26 peptide: TFDEFGHSINDYS
Method: as §1, §2

[27] = target: T27, human CD26-derived 13 mer peptide 25 (human); assay: peptide microarray
T27 peptide: DEFGHSINDYSIS
Method: as §1, §2

[28] = target: T28, human CD26-derived 13 mer peptide 26 (human); assay: peptide microarray
T28 peptide: FGHSINDYSISPD
Method: as §1, §2

[29] = target: T29, human CD26-derived 13 mer peptide 28 (human); assay: peptide microarray
T29 peptide: INDYSISPDGQFI
Method: as §1, §2

[30] = target: T30, human CD26-derived 13 mer peptide 43 (human); assay: peptide microarray
T30 peptide: YDIYDLNKRQLIT
Method: as §1, §2

[31] = target: T31, human CD26-derived 13 mer peptide 44 (human); assay: peptide microarray
T31 peptide: IYDLNKRQLITEE
Method: as §1, §2

[32] = target: T32, human CD26-derived 13 mer peptide 45 (human); assay: peptide microarray
T32 peptide: DLNKRQLITEERI
Method: as §1, §2

[33] = target: T33, human CD26-derived 13 mer peptide 46 (human); assay: peptide microarray
T33 construct: also called NKRQL1TEERIPN
T33 peptide: NKRQLITEERIPN
Method: as §1, §2

[34] = target: T34, human CD26-derived 13 mer peptide 47 (human); assay: peptide microarray
T34 peptide: RQLITEERIPNNT
Method: as §1, §2

[35] = target: T35, human CD26-derived 13 mer peptide 60 (human); assay: peptide microarray
T35 peptide: YVWNNDIYVKIEP
Method: as §1, §2

[36] = target: T36, human CD26-derived 13 mer peptide 61 (human); assay: peptide microarray
T36 peptide: WNNDIYVKIEPNL
Method: as §1, §2

[37] = target: T37, human CD26-derived 13 mer peptide 62 (human); assay: peptide microarray
T37 peptide: NDIYVKIEPNLPS
Method: as §1, §2

[38] = target: human CD26 on the cell surface (human, UniProt P27487 1-766); assay: cell-based or functional assay
Sequence of human CD26 on the cell surface (P27487 whole entry): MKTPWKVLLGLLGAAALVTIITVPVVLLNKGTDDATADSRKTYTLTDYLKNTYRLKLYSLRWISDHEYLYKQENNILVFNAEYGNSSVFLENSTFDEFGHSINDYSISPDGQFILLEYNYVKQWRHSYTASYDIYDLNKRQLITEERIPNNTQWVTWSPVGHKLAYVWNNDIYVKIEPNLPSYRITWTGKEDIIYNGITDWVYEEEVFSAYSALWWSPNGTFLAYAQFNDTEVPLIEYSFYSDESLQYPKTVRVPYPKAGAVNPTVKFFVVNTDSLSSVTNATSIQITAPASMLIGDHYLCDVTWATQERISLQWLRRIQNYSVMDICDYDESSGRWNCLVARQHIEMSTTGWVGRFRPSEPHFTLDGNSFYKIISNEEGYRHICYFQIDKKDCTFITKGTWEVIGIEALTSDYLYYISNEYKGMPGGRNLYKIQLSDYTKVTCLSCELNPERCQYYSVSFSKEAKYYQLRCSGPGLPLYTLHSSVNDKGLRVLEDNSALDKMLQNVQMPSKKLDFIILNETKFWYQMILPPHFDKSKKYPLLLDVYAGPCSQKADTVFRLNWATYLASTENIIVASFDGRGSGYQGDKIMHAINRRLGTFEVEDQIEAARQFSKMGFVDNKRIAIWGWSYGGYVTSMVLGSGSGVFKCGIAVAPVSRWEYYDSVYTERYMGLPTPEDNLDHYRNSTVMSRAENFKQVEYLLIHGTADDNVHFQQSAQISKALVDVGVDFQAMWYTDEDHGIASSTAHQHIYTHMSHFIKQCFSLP

B1: rhuMAb 412 (antibody, human IgG1, V domains shown)
VH: EVQLVQSGGGVKQPGETLRLTCTASGFSLTTYGVHWVRQAPGKGLEWVGVIWGDGRTDYDAAFMSRVTISKDTSKSTAYLQMNSLRAEDTAVYYCMRNRHDWFDYWGQGTTVTVSS
VL: EIEMTQSPSSLSVSAGERATISCSASQDIRNSLNWYQQKPGQAPRLLIYYSSNLHTGVPARFSGSGSGTDFTLTISRLEPEDVAIYYCQQSNKLPLTFGSGTKVEIKR
notes: X385 VH and X380 VL with human IgG1 and human kappa constant regions; also called X412
[1]
  Mean Signal Value: 0
[2]
  Mean Signal Value: 0
[3]
  Mean Signal Value: 0
[4]
  Mean Signal Value: 0
[5]
  Mean Signal Value: 0
[6]
  Mean Signal Value: 0
[7]
  Mean Signal Value: 0
[8]
  Mean Signal Value: 0
[9]
  Mean Signal Value: 0
[10]
  Mean Signal Value: 0
[11]
  Mean Signal Value: 0
[12]
  Mean Signal Value: 0
[13]
  Mean Signal Value: 0
[14]
  Mean Signal Value: 0
[15]
  Mean Signal Value: 0
[16]
  Mean Signal Value: 0
[17]
  Mean Signal Value: 0
[18]
  Mean Signal Value: 0
[19]
  Mean Signal Value: 0
[20]
  Mean Signal Value: 0
[21]
  Mean Signal Value: 0
[22]
  Mean Signal Value: 0
[23]
  Mean Signal Value: 0
[24]
  Mean Signal Value: 0
[25]
  Mean Signal Value: 0
[26]
  Mean Signal Value: 0
[27]
  Mean Signal Value: 0
[28]
  Mean Signal Value: 0
[29]
  Mean Signal Value: 0
[30]
  Mean Signal Value: 0
[31]
  Mean Signal Value: 0
[32]
  Mean Signal Value: 0
[33]
  Mean Signal Value: 0
[34]
  Mean Signal Value: 0
[35]
  Mean Signal Value: 0
[36]
  Mean Signal Value: 0
[37]
  Mean Signal Value: 0
[38]
  percent inhibition, MTT assay, Jurkat CD26+ cells, 0.05 ug/ml: 0.3%
  percent inhibition, MTT assay, Jurkat CD26+ cells, 0.25 ug/ml: 5.4%
  percent inhibition, MTT assay, Jurkat CD26+ cells, 5 ug/ml: 23.6%
